{
  "source": "paper PMC3263801",
  "origin": "cited, not measured here",
  "molecular_target": "hDM2 (Homo sapiens) (UniProt Q00987)",
  "sequence (Q00987 whole entry)": "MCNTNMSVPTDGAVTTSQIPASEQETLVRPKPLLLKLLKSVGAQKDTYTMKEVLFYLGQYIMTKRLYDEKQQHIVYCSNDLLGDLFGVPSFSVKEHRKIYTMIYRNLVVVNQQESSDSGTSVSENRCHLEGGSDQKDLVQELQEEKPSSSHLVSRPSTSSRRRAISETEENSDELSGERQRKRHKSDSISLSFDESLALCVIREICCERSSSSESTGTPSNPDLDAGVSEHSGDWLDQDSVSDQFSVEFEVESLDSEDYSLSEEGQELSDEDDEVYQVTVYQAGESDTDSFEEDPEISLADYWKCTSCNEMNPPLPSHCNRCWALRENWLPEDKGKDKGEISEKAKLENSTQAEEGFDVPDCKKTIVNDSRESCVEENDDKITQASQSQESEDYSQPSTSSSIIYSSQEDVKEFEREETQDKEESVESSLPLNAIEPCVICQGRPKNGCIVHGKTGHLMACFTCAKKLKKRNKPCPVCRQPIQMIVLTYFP",
  "data": [
    {"substance": "stapled p53 peptide (from UniProt P04637)", "values": [
      {"measurement": "Kd", "value": 0.9, "unit": "nM"}
    ]}
  ]
}
